Substitutions are numbered along the chain they refer to. Names and notes keep the numbering of the source.
How the values were obtained:
Assay in all cases: SEC
[1] = molecular target: T1, S100A9(C3S) with H103A (S100A9 subunit of CP-Ser(H103A)) (human, UniProt P06702 1-114, C3S | H103A)
T1 sequence (looked up): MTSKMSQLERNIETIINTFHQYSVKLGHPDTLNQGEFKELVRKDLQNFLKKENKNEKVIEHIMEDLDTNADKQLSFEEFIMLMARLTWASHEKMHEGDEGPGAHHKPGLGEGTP

[2] = molecular target: T2, S100A9(C3S) with H105A (S100A9 subunit of CP-Ser(H105A)) (human, UniProt P06702 1-114, C3S | H105A)
T2 sequence (looked up): T1 sequence (looked up) with A103H, H105A

[3] = molecular target: T3, S100A9(C3S) with H104A (S100A9 subunit of CP-Ser(H104A)) (human, UniProt P06702 1-114, C3S | H104A)
T3 sequence (looked up): T1 sequence (looked up) with A103H, H104A

[4] = molecular target: T4, S100A9(C3S) with E111A (S100A9 subunit of CP-Ser(E111A)) (human, UniProt P06702 1-114, C3S | E111A)
T4 sequence (looked up): T1 sequence (looked up) with A103H, E111A

[5] = molecular target: T5, S100A9(C3S) with E99A (S100A9 subunit of CP-Ser(E99A)) (human, UniProt P06702 1-114, C3S | E99A)
T5 sequence (looked up): T1 sequence (looked up) with E99A, A103H

[6] = molecular target: T6, S100A9(C3S) with K106A (S100A9 subunit of CP-Ser(K106A)) (human, UniProt P06702 1-114, C3S | K106A)
T6 sequence (looked up): T1 sequence (looked up) with A103H, K106A

[7] = molecular target: T7, S100A9(C3S) with E96A (S100A9 subunit of CP-Ser(E96A)) (human, UniProt P06702 1-114, C3S | E96A)
T7 sequence (looked up): T1 sequence (looked up) with E96A, A103H

S100A9(C3S) = molecular target: T8, S100A9(C3S) (human, UniProt P06702 1-90, C3S)
T8 sequence: T1 sequence (looked up) with A103H

[8] = molecular target: T9, human-mouse S100A9 chimera (S100A9 subunit of CP-Ser-mT) (human | mouse, UniProt P06702 1-90, C3S)
T9 sequence: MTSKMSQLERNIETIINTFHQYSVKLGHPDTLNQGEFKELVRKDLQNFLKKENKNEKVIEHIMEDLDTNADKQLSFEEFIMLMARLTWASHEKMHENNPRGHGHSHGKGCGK

[9] = molecular target: T10, S100A9(C3S) truncated after residue 101 (S100A9 subunit of CP-Ser-Δ101) (human, UniProt P06702 1-90, C3S)
T10 sequence: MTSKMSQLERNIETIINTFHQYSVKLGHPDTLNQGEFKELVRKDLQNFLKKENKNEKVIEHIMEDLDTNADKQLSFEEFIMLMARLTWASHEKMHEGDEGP

[10] = molecular target: T11, S100A9(C3S) with D98A (S100A9 subunit of CP-Ser(D98A)) (human, UniProt P06702 1-114, C3S | D98A)
T11 sequence (looked up): T1 sequence (looked up) with D98A, A103H

SEC = molecular target: the molecule itself

B1: S100A8(C42S) (natural protein, human)
chain: MLTELEKALNSIIDVYHKYSLIKGNFHAVYRDDLKKLLETESPQYIRKKGADVWFKELDINTDGAVNFQEFLILVIKMGVAAHKKSHEESHKE
B1: binds [1]; binds [2]; binds [3]. B1: binds [4]; binds [5]; binds [6]. B1: binds [7]; binds (S100A9(C3S)); binds [8]. B1: binds [9]; binds [10].

B2: CP-Ser (αβ heterodimer of S100A8(C42S) and S100A9(C3S)) (complex, human)
chain 1: B1 chain
chain 2: T1 sequence (looked up) with A103H
B2: binds (SEC).

B3: CP-Ser-Δ101 (αβ heterodimer) (complex, human)
chain 1: B1 chain
chain 2: T10 sequence
B3: binds (SEC).

B4: CP-Ser-mT (αβ heterodimer) (complex, human | mouse)
chain 1: B1 chain
chain 2: T9 sequence
B4: binds (SEC).

B5: CP-Ser(E96A) (αβ heterodimer) (complex, human)
chain 1: B1 chain
chain 2: T1 sequence (looked up) with E96A, A103H
B5: binds (SEC).

B6: CP-Ser(D98A) (αβ heterodimer) (complex, human)
chain 1: B1 chain
chain 2: T1 sequence (looked up) with D98A, A103H
B6: binds (SEC).

B7: CP-Ser(E99A) (αβ heterodimer) (complex, human)
chain 1: B1 chain
chain 2: T1 sequence (looked up) with E99A, A103H
B7: binds (SEC).

B8: CP-Ser(H103A) (αβ heterodimer) (complex, human)
chain 1: B1 chain
chain 2: T1 sequence (looked up)
B8: binds (SEC).

B9: CP-Ser(H104A) (αβ heterodimer) (complex, human)
chain 1: B1 chain
chain 2: T1 sequence (looked up) with A103H, H104A
B9: binds (SEC).

B10: CP-Ser(H105A) (αβ heterodimer) (complex, human)
chain 1: B1 chain
chain 2: T1 sequence (looked up) with A103H, H105A
B10: binds (SEC).

B11: CP-Ser(K106A) (αβ heterodimer) (complex, human)
chain 1: B1 chain
chain 2: T1 sequence (looked up) with A103H, K106A
B11: binds (SEC).

B12: CP-Ser(E111A) (αβ heterodimer) (complex, human)
chain 1: B1 chain
chain 2: T1 sequence (looked up) with A103H, E111A
B12: binds (SEC).

B13: CP-Ser-AHA (αβ heterodimer) (complex, human)
chain 1: B1 chain
chain 2: T1 sequence (looked up) with H105A
B13: binds (SEC).

B14: CP-Ser-AAA (αβ heterodimer) (complex, human)
chain 1: B1 chain
chain 2: T1 sequence (looked up) with H104A, H105A
B14: binds (SEC).

B15: CP-Ser-AAE (αβ heterodimer) (complex, human)
chain 1: B1 chain
chain 2: T1 sequence (looked up) with H104A, H105E
B15: binds (SEC).

B16: CP-Ser-AAA(K106H) (αβ heterodimer) (complex, human)
chain 1: B1 chain
chain 2: T1 sequence (looked up) with H104A, H105A, K106H
B16: binds (SEC).

B17: CP-Ser-AHA(K106H) (αβ heterodimer) (complex, human)
chain 1: B1 chain
chain 2: T1 sequence (looked up) with H105A, K106H
B17: binds (SEC).

B18: CP-Ser-AAA(L109H)(E111H) (αβ heterodimer) (complex, human)
chain 1: B1 chain
chain 2: T1 sequence (looked up) with H104A, H105A, L109H, E111H
B18: binds (SEC).
